Source: patent US20040138156A1, “Therapeutic regulation of deoxyribonuclease-1-like-3 activity” (priority 2002, published 2004)
Entries after “also recorded” stand apart in the source; their conditions may differ.

Key:
bone marrow macrophages = test: Induction of D1L3 in cultured bone marrow macrophages (anti-D1L3 immunoblot, RDA, zymogram); assay type: cell-based, C57BL mice; settings: 100 U/ml for the interferons
Protocol: FIG. 22. Normal and induced expression of D1L3 in murine macrophages. […] In anti-D1L3 blots of cell lysates, the protein is seen both as a ^˜34 kDa uncleaved molecule and a ^˜28 kDa cleaved molecule. […] Cells were plated on serum-coated tissue culture dishes and incubated overnight, the next morning, non-adherent cells (N) were rinsed vigorously with PBS 1×, and both adeherent (A) and non-adherent cells (N) from C57BL, NZB/W, BXSB, and MRL were lysed and immunoblotted with anti-D1L3. While the ^˜34 kDa size band consistent with uncleaved D1L3 is present in both adherent and non-adherent, the cleaved form (^˜28 kDa) is present almost exclusively in the adherent population of presumed macrophages. Also noticable are the higher levels of expression of D1L3 in the 3 latter lupus strains. Panel B: Untreated bone marrow macrophages from NZB/WF1 mice have a much higher baseline expression expression of D1L3 than C57BL macrophages.
Induction is present in macrophages from both strain though the absolute level of induction appears greater in C57BL than in the SLE-prone NZB/W F1 strain. NZB/W protein loads in Ifn-γ-negative lane is slightly underloaded relative to actin. Panel C: Bone marrow macrophages isolated from bone marrow (via adherence) from MRL and C57BL mice, and cultured for 2 days in vitro, were induced by Ifn-γ. […] No induction of D1L3, RDA-DNASE, or zymographic DNASE activity is evident upon tratement with 100 U/ml of Ifn-alpha. […] Panel D: Bone marrow macrophages from C57BL and MRL mice cultured for 7 days in the presence of GM-CSF were induced with Ifn-γ, again showing the higher baseline levels of 28 kDa enzyme in the lupus prone strain, and in C57BL showing induction of levels aftern Ifn-γ. […]
Assays of Murine Cells. […] Splenocytes were counted using a hemochromocytometer, and plated at 2 million cells/ml on plastic 6-well Falcon tissue culture dishes (Becton Dickinson) in RPMI with 10% FCS. […]

free DNA = test: Radial diffusion assay (RDA) of nuclease activity against free DNA in conditioned media; assay type: biochemical; settings: for mean RDA activity of conditioned media: 24 hours, 37 degrees
Protocol: (§1) Transfection Reagents and Resistance Assays. Lipofection of respective pcDNA3.1-D1 or -D3 ([…] purified with Promega Wizard Plus DNA system) was performed independently into 1-2 million HeLa cells, which produce a low background of secreted nuclease activity, when grown in DMEM with 10% FCS (LifeTech) in 6 well culture plates (Becton-Dickinson). […] Media of the transfected cells were conditioned for 36-48 hours and served as source of the respective enzymes. Nuclease activity in conditioned supernatant was measured by RDAs, zymograms and by testing activity against supercoiled pBluescript (Stratagene).
Nuclease Assays. Nuclease activity against “naked” or free DNA in CM was quantified by densitometry of RDAs. For assays of media by murine cells, RDAs were performed using conditioned media, after 36 hour incubation of equal numbers of target cell population. Each conditioned media was sampled in triplicate. RDAs for all four mice were performed on a single dish. For RDAs, 2-5 ul of conditioned supernatant was dotted on 100 mm dishes containing 2% agarose, 250 ug/ml DNA, 0.001% EtBr, 0.5% filtered milk, 10 mM Ca^+2/MgCl2; and 12.5 ug/ml kanamycin. Multiple observations were generated for every sample obtained. After 24 hours of 37° incubation, plates are photographed under UV transillumination; and scanned photos were analyzed with NIH image. For RDAs, the activity was quantified as the product of mean density and area (traced on image) of zones of clearing. For observations of serum/urine, 2-5 ul of serum were dotted on agarose plates.
Zymograms are in-gel renaturation assays performed by SDS-PAGE through a gel impregnated with 200 µg/ml DNA and ethidium bromide, eluting away SDS with repeated washes in 25 mM Tris-HCl pH 7.5, then incubating for 12-16 hours at 37° C. in 25 mM Tris-HCl pH 7.5 with 10 mM Ca^+2/Mg^+2 buffer. Activity is measured as dark “bands” of DNA digestion (Rosenthal et al., (1977) Anal. Biochem. 80, 76-90) and quantified using scanned images using NIH Image. Photographed RDA results were scanned 600 dpi Tiff images, and activity was measured as pixel area times density of traced zones of clearing (n=3 for each zone). Student's T-test was used to compare paired results. Nuclease activity ratios were obtained by comparing intra-plate results.

HeLa cells = test: BT assay: liposomal N1-eGFP transfection of HeLa cells in DNASE-conditioned media, GFP immunoblot; assay type: cell-based; settings: for GFP fluorescence by fluorescent microscopy: 24 hours; for BT activity / GFP expression or transfection efficiency in cells exposed to undiluted conditioned media: FuGENE-6; for GFP transfection in ten-fold diluted conditioned media: ten-fold (five and ten fold) dilution of conditioned media
Protocol: In the main assay, an eukaryotic marker such as green fluorescent protein (GFP) expression plasmid complexed with a lipid reagent is transfected into HeLa cells incubated in control media, D1L3-conditioned media, or D1-conditioned media (FIG. 4). The assay is not limited to the use of GFP as a marker, but could use any of many expressed biomarkers encoded by nucleotides that can be assayed either immunochemistry, fluorescent detection, or enzymatic detectection, and these include but are not circumscribed to luciferase, chloramphenicol acetyl-transferase, antibiotic or chemical resistance genes, Beta-galactosidase, FLAG-, myc-hemaglutinnin-, or other epitope tagged molecules, as well as other markers of gene or nucleotide transduction. The endpoint of the assay is the detection of a synthesized protein, but could easily have been the detection of a transcribed gene product, since the assay ultimately measures the ability of D1L3 added the media/milieu overlaying the cells to block the ultimate association of an expressible plasmid with the transcriptional machinery.
as §1
To test for the ability of the nucleases to block transfection, the media in individual wells of naive HeLa cells were replaced with conditioned media, and cells transfected with […] of N1-eGFP plasmid (Clontech) using various transfection reagents (FIG. 11) and their respective protocols. GFP expression by immunoblot directly correlated with transfection efficiency in present experiments. Thus, transfection efficiency was compared by densitometric analysis of GFP immunoblots.
GFP expression was also examined by fluorescent microscopy using a FITC filter. For microscopy, cells were fixed for 5 minutes in 4% paraformaldehyde dissolved into 1% PBS.
Antibody Reagents and Immunoblotting. After 24-36 hours, cells transfected with N1-eGFP were lysed in SDS-buffer and immunoblotted for expression with anti-GFP at 1:5000 dilution (Clontech). To confirm nearly equal protein loading per lane, anti-β-actin monoclonal antibody at 1:7,000 dilution (Sigma) were prepared. For immunoblots, […] protein was eletrophoretically separated by 12% SDS-PAGE gel, followed by electrotransfer to Immobilon-P membranes (Millipore) for expression studies. Immunoblotting was performed using ECL detection (Amersham).
Transfection efficiency was compared, wherever possible, by pixel densitometry of the scanned images using Scion Image 4.02 software.

Ad5.CMV-GFP = test: Adenoviral gene transduction of HeLa cells in conditioned media, GFP immunoblot; assay type: cell-based, adenovirus serotype 5; settings: lysed at 72 hours
Protocol: FIG. 30. D3-media confers an in vitro barrier to adenoviral gene transduction (BT). This figure provides anti-GFP immunoblots at 1:5000 (Clontech) of Ad.V.GFP infected (MO 100:1) of 100,000 HeLa cells. Infection of HeLa cells with Ad5.CMV-GFP (a 1st generation (DE1/DE3) adenovirus serotype 5 expressing GFP under the control of CMV-IE promoter (Qbiogene)) was performed in the presence of D1, D3, D1+D3CT, or control conditioned media. Infected cells were lysed at 72 hours and tested for GFP expression (n=3 expts). […] Thus DNASE1L3 or DNASE enzymes linked to the D3CT diminish adenoviral gene transfer. […] Actin levels were generally equivalent in infected cells.

liposomal-bound plasmid = test: Cell-free nuclease activity assay on free or FuGene-bound plasmid; assay type: biochemical; settings: FuGene-bound plasmid, 37° C., 1 hour
Protocol: FIG. 16. […] Representative experiment (n=3) of exposure of […] free (−) or liposomal-bound (+FuGene) plasmid to control media with 10% fetal calf serum (lanes 1-2), D1 (lanes 3-4), D1L3 (lanes 5-6), D3DCT (lanes 7-8), and N196K-D3 (lanes 9-10).
Cell-Free Nuclease Activity Assay. Free plasmid DNA or plasmid complexed with lipofection reagent was incubated with conditioned at 37° C. for 1 hour. The incubation was terminated with […] EDTA, and DNA extracted using Promega Wizard DNA Purification System, eluted in […] water, and electrophoresed on a 1% agarose gel.

[1] = media conditioned by transfected HeLa cells

| Molecule | induction of D1L3 in macrophages (bone marrow macrophages) | mean RDA activity of conditioned media (free DNA; [1]) | GFP fluorescence by fluorescent microscopy (HeLa cells) | BT activity / GFP expression or transfection efficiency in cells exposed to undiluted conditioned media (HeLa cells; anti-GFP immunoblot) | GFP expression after Ad5.CMV-GFP infection / barrier to infection (Ad5.CMV-GFP) | state of liposome-bound plasmid after exposure to conditioned media (liposomal-bound plasmid) | also measured |
| --- | --- | --- | --- | --- | --- | --- | --- |
| CCCCCCCCCCCCCC(=O)O[C@@H]1[C@@H](C)[C@@]2(O)[C@@H](C=C(CO)C[C@]3(O)C(=O)C(C)=C[C@@H]23)[C@@H]2C(C)(C)[C@]12OC(C)=O [PMA, phorbol myristate acetate] | inducible |  |  |  |  |  |  |
| lipopolysaccaride [LPS] | inducible |  |  |  |  |  |  |
| D1: Murine deoxyribonuclease 1, glycosylated, supplied as media conditioned by transfected HeLa cells (protein, UniProt P49183 23-284, looked up) Deoxyribonuclease-1: LRIAAFNIRTFGETKMSNATLSVYFVKILSRYDIAVIQEVRDSHLVAVGKLLDELNRDKPDTYRYVVSEPLGRKSYKEQYLFVYRPDQVSILDSYQYDDGCEPCGNDTFSREPAIVKFFSPYTEVQEFAIVPLHAAPTEAVSEIDALYDVYLDVWQKWGLEDIMFMGDFNAGCSYVTSSQWSSIRLRTSPIFQWLIPDSADTTVTSTHCAYDRIVVAGALLQAAVVPNSAVPFDFQAEYGLSNQLAEAISDHYPVEVTLRKI |  | 28.2 Units | abundant GFP | did not differ significantly from controls; also recorded: no significant decrease; also recorded: no effect | increased expression of GFP | all remaining plasmid migrated in a nicked or linearized conformation | RDA activity relative to D1L3 conditioned media (free DNA; densitometry of RDAs, n=24 assays): ~2.7 fold; RDA nuclease activity of conditioned media (in words) (free DNA; [1]): greater RDA activity than D3; mean ratio of GFP expression in exposed cells versus control (HeLa cells; n=20 assays, anti-GFP immunoblot): 0.8 ± 0.2 |
| D1L3: Deoxyribonuclease 1-like 3; murine wild-type (C57BL, 89T) enzyme supplied as media conditioned by transfected HeLa cells (protein) LRLCSFNVRSFGASKKENHEAMDIIVKIIKRCDLILLMEIKDSSNNICPMLMEKLNGNSRRSTTYNYVISSRLGRNTYKEQYAFVYKEKLVSVKTKYHYHDYQDGDTDVFSREPFVVWFHSPFTAVKDFVIVPLHTTPETSVKEIDELVDVYTDVRSQWKTENFIFMGDFNAGCSYVPKKAWQNIRLRTDPKFVWLIGDQEDTTVKKSTSCAYDRIVLCGQEIVNSVVPRSSGVFDFQKAYDLSEEEALDVSDHFPVEFKLQSSRAFTNNRKSVSLKKRKKGNRS |  | 12.0 Units | absence of GFP fluorescence | No GFP expression; also recorded: effectively blocks transfection efficiency | afford a barrier to infection | mostly supercoiled plasmid is protected | BT effect of diluted conditioned media (HeLa cells; diluted 100 fold with control media or 10-fold with N196K conditioned media): complete BT effect; GFP transduction after pre-incubation in conditioned media (HeLa cells; naive cells incubated six hours, rinsed twice with PBS, transfected in control media): blocked; GFP transfection in ten-fold diluted conditioned media (HeLa cells): No GFP expression is clearly detectable; GFP transfection in ten-fold diluted conditioned media (HeLa cells; listed as 89T): nearly completely blocks GFP transduction; also recorded: no GFP transfection efficiency; GFP transfection in ten-fold diluted conditioned media (HeLa cells; listed as D3): No GFP expression is clearly detectable; BT activity / GFP expression or transfection efficiency in cells exposed to undiluted conditioned media (HeLa cells; anti-GFP immunoblot, listed as 89T): saturated BT activity; BT activity / GFP expression or transfection efficiency in cells exposed to undiluted conditioned media (HeLa cells; anti-GFP immunoblot, listed as D3): prevents GFP expression; also recorded: abolished; GFP expression after Ad5.CMV-GFP infection / barrier to infection (Ad5.CMV-GFP; listed as D3): prevents GFP expression; state of liposome-bound plasmid after exposure to conditioned media (liposomal-bound plasmid; listed as D1L3-CM): does not completely digest liposomal-bound DNA |
